These results are taken from PMC4640833, “Identification of a Novel Di-D-Fructofuranose 1,2’:2,3’ Dianhydride (DFA III) Hydrolysis Enzyme from Arthrobacter aurescens SK8.001” (PLoS ONE, 2015).

Data set [1] addresses DFA III hydrolysis enzyme (DFA IIIase) from Arthrobacter aurescens SK8.001 (Arthrobacter aurescens SK8.001). The experiment in a line: SEC; gel filtration by HPLC, TSK G2000SWxl column, 0.1 M phosphate buffer pH 6.7 with 0.05% NaN3 and 0.1 M Na2SO4, 1 mL/min, UV 280 nm; native mass about 145 kDa against 49 kDa subunit by SDS-PAGE; mass markers for calibration.
Substrate in data set [2]: OC[C@H]1O[C@@]2(CO[C@]3(CO)O[C@H](CO)[C@@H](O)[C@@H]3O2)[C@@H](O)[C@@H]1O
The experiment in a line: HPLC (refractive index) of inulobiose produced, nonlinear Michaelis-Menten fit. It is filed as biochemical, Paenarthrobacter aurescens. The settings on record: 50 mM citrate buffer pH 5.5, 55°C, 10 min, DFA III 2.0-50 mM.

One may read the stoichiometry N as a count of units in the complex or per binding partner. Regarding “DFA III hydrolysis enzyme (DFA IIIase) from Arthrobacter aurescens SK8.001”, the stoichiometry N in data set [1] came to 3.

B1: AaDFA IIIase (Paenarthrobacter aurescens) (protein)
chain: MSNSNYYNVTAWPIGDPFTGVGEVINSIIADIKDRQTATDENDGGKPGAVIYLPPGDYRLRTQVVIDVSFLRIEGSGHGFTSSSIRFNAPEAEWPDLHELWPGGSRVMVDLPIIDDERPSDLLPDQESKGAAFYVERSGSPRISSVEFSNFCIDGLHFTPDGSGLPAENSYVNGKTGIYVASANDSFRVNGMGFVYLENALTICKADALSVHDNFIAECGSCIELRGWGQASKITDNLIGAGFKGHSIYAQNHGGLLITANNIFPRGASSIHFEGVTRSSVSNNRLHSFYPGMVVLAEGSSENLVSTNHFLRDHEPWTPFLGVDNGRDDLYGILRISGSNNSVIGNHFSEVVDAQSIWPSGATPVIIRLAEGTGNFVSNNHVVAMDVRSASSDSCFAAQVDALLTTGASDGLAVTAVLVDSTSARNTILDSGNDAQVIADRGANAVRATPTVGFAAAESTQSSQGAGIPR
notes: full length 470 residues (49,879 Da), no signal peptide, C-terminal 6xHis tag kept, pET-22b(+) in E. coli BL21(DE3), homotrimer 145 kDa
The Km is the substrate concentration at which the rate is half of its maximum. With B1, the Km in data set [2] is reported as 30.7 ± 4.3 mM.
